In patent US20190300590A1 (PROTAGONIST THERAPEUTICS, published 2019) one finds IC50 data, which are given here for 17 molecules.

Read-outs that look alike come from different tables or passages of the source. Bridges are numbered along the chain shown (N, C = ends). Primed or numbered codes have the meaning given here. Where no end group is shown, it is not given here. [ ]: non-standard residue; d: D form. Bip = N[C@@H](Cc1ccc(-c2ccccc2)cc1)C(=O)O; 1Nal = N[C@@H](Cc1cccc2ccccc12)C(=O)O; NMeH = CN[C@@H](Cc1c[nH]cn1)C(=O)O; NMeE = CN[C@@H](CCC(=O)O)C(=O)O; Aic′ = not defined here; Aib = CC(C)(N)C(=O)O; PEG1 = NCCOCCC(=O)O; AEA = NCCOCC(=O)O Bounds are passed on as bounds.

The target in assay [1] is T1, IL23R_huFC (human, UniProt Q5VWK5 24-353).
T1 sequence (looked up): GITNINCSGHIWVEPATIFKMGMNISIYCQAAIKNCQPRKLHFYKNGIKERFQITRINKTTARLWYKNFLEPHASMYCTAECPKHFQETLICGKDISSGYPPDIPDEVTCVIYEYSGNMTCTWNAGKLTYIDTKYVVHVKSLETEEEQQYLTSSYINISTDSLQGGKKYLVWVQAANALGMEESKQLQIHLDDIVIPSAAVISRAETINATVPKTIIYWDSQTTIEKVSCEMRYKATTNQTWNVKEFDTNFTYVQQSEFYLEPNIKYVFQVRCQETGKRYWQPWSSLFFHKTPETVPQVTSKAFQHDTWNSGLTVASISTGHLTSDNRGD
The assay is described as follows: IL23-IL23R competitive ELISA.

For assay [2], the target named is T1, IL23R_huFC. As to the kind of experiment: IL23-IL23R competitive ELISA. This is another data set of the same source.

B1: Ac-CADWVCY-[1-Nal]-HTF-[Aib]-NH2 (peptide)
peptide: Ac-CADWVCY[1Nal]HTF[Aib]-NH2
modifications: disulfide 1-6
SMILES: CC(=O)N[C@H]1CSSC[C@@H](C(=O)N[C@@H](Cc2ccc(O)cc2)C(=O)N[C@@H](Cc2cccc3ccccc23)C(=O)N[C@@H](Cc2c[nH]cn2)C(=O)N[C@H](C(=O)N[C@@H](Cc2ccccc2)C(=O)NC(C)(C)C(N)=O)[C@@H](C)O)NC(=O)[C@H](C(C)C)NC(=O)[C@H](Cc2c[nH]c3ccccc23)NC(=O)[C@H](CC(=O)O)NC(=O)[C@H](C)NC1=O
Regarding B1, the IC50 in the assay with IL23R_huFC [1] was over 1000 nM.

B2: Hy-CADWVCY-[1-Nal]-HTF-[Sarc]-OH (peptide)
peptide: CADWVCYXHTFX
modifications: [1-Nal]; [Sarc]; disulfide
B2 yielded a half-maximal inhibitory concentration (IC50) with IL23R_huFC [1] of over 1000 nM.

B3: Ac-CADWVCY-[1-Nal]-[N-Me-His]-[(D)Ala]-F-[Aib]-NH2 (peptide)
peptide: Ac-CADWVCY[1Nal][NMeH][dA]F[Aib]-NH2
modifications: disulfide 1-6
SMILES: CC(=O)N[C@H]1CSSC[C@@H](C(=O)N[C@@H](Cc2ccc(O)cc2)C(=O)N[C@@H](Cc2cccc3ccccc23)C(=O)N(C)[C@@H](Cc2c[nH]cn2)C(=O)N[C@H](C)C(=O)N[C@@H](Cc2ccccc2)C(=O)NC(C)(C)C(N)=O)NC(=O)[C@H](C(C)C)NC(=O)[C@H](Cc2c[nH]c3ccccc23)NC(=O)[C@H](CC(=O)O)NC(=O)[C@H](C)NC1=O
B3: in the assay with IL23R_huFC [1], the IC50 is over 1000 nM.

B4: Ac-CQDWQCYWRENG-[AEA]-[(D)-Lys]-NH2 (peptide)
peptide: Ac-CQDWQCYWRENG[AEA][dK]-NH2
modifications: disulfide 1-6 (inferred)
Turning to B4, the concentration for half-maximal inhibition (IC50) with IL23R_huFC [2] was under 500 nM.

B5: Ac-CQTWQCYWRENG-[AEA]-[(D)-Lys]-NH2 (peptide)
peptide: Ac-CQTWQCYWRENG[AEA][dK]-NH2
modifications: disulfide 1-6
SMILES: CC(=O)N[C@H]1CSSC[C@@H](C(=O)N[C@@H](Cc2ccc(O)cc2)C(=O)N[C@@H](Cc2c[nH]c3ccccc23)C(=O)N[C@@H](CCCNC(=N)N)C(=O)N[C@@H](CCC(=O)O)C(=O)N[C@@H](CC(N)=O)C(=O)NCC(=O)NCCOCC(=O)N[C@H](CCCCN)C(N)=O)NC(=O)[C@H](CCC(N)=O)NC(=O)[C@H](Cc2c[nH]c3ccccc23)NC(=O)[C@H]([C@@H](C)O)NC(=O)[C@H](CCC(N)=O)NC1=O
For B5, the IC50 with IL23R_huFC [2] was under 500 nM.

B6: Ac-CQTWQCYWRENG-[AEA]-[(D)-Lys]-NH2 (peptide)
peptide: Ac-CQTWQCYWRENG[AEA][dK]-NH2
modifications: disulfide 1-6
SMILES: CC(=O)N[C@H]1CSSC[C@@H](C(=O)N[C@@H](Cc2ccc(O)cc2)C(=O)N[C@@H](Cc2c[nH]c3ccccc23)C(=O)N[C@@H](CCCNC(=N)N)C(=O)N[C@@H](CCC(=O)O)C(=O)N[C@@H](CC(N)=O)C(=O)NCC(=O)NCCOCC(=O)N[C@H](CCCCN)C(N)=O)NC(=O)[C@H](CCC(N)=O)NC(=O)[C@H](Cc2c[nH]c3ccccc23)NC(=O)[C@H]([C@@H](C)O)NC(=O)[C@H](CCC(N)=O)NC1=O
Turning to B6, in the assay with IL23R_huFC [2], the IC50 is under 500 nM.

B7: Ac-CQTWQCYWRENG-[AEA]-[(D)-Lys]-NH2 (peptide)
peptide: Ac-CQTWQCYWRENG[AEA][dK]-NH2
modifications: disulfide 1-6
SMILES: CC(=O)N[C@H]1CSSC[C@@H](C(=O)N[C@@H](Cc2ccc(O)cc2)C(=O)N[C@@H](Cc2c[nH]c3ccccc23)C(=O)N[C@@H](CCCNC(=N)N)C(=O)N[C@@H](CCC(=O)O)C(=O)N[C@@H](CC(N)=O)C(=O)NCC(=O)NCCOCC(=O)N[C@H](CCCCN)C(N)=O)NC(=O)[C@H](CCC(N)=O)NC(=O)[C@H](Cc2c[nH]c3ccccc23)NC(=O)[C@H]([C@@H](C)O)NC(=O)[C@H](CCC(N)=O)NC1=O
Regarding B7, the IC50 with IL23R_huFC [2] is under 500 nM.

B8: Ac-CADWVCY-[1-Nal]-H-[Aib]-[(D)Phe]-G-NH2 (peptide)
peptide: Ac-CADWVCY[1Nal]H[Aib][dF]G-NH2
modifications: disulfide 1-6
SMILES: CC(=O)N[C@H]1CSSC[C@@H](C(=O)N[C@@H](Cc2ccc(O)cc2)C(=O)N[C@@H](Cc2cccc3ccccc23)C(=O)N[C@@H](Cc2c[nH]cn2)C(=O)NC(C)(C)C(=O)N[C@H](Cc2ccccc2)C(=O)NCC(N)=O)NC(=O)[C@H](C(C)C)NC(=O)[C@H](Cc2c[nH]c3ccccc23)NC(=O)[C@H](CC(=O)O)NC(=O)[C@H](C)NC1=O
Consider B8, for which the 50% inhibitory concentration (IC50) in the assay with IL23R_huFC [1] was over 1000 nM.

B9: Ac-CQTWQCYW[N-MeGlu]-NG-[AEA]-[(D)-Lys] (peptide)
peptide: Ac-CQTWQCYW[NMeE]NG[AEA][dK]
modifications: disulfide 1-6 (inferred)
B9 had a half-inhibitory concentration (IC50) with IL23R_huFC [1] of over 1000 nM.

B10: Ac-CADWVCYWHRCGWWGC-NH2 (peptide)
peptide: Ac-CADWVCYWHRCGWWGC-NH2
modifications: disulfide (positions not given here)
Turning to B10, the IC50 with IL23R_huFC [1] was over 1000 nM.

B11: Ac-CADWVCY-[1-Nal]-H-[AEP]-G-NH2 (peptide)
peptide: Ac-CADWVCY[1Nal]H[PEG1]G-NH2
modifications: disulfide 1-6
SMILES: CC(=O)N[C@H]1CSSC[C@@H](C(=O)N[C@@H](Cc2ccc(O)cc2)C(=O)N[C@@H](Cc2cccc3ccccc23)C(=O)N[C@@H](Cc2c[nH]cn2)C(=O)NCCOCCC(=O)NCC(N)=O)NC(=O)[C@H](C(C)C)NC(=O)[C@H](Cc2c[nH]c3ccccc23)NC(=O)[C@H](CC(=O)O)NC(=O)[C@H](C)NC1=O
For the molecule B11, in the assay with IL23R_huFC [1], the half-inhibitory concentration (IC50) was over 1000 nM.

B12: Hy-CADWVCY-[1-Nal]-HT-[(D)Phe]-OH (peptide)
peptide: H-CADWVCY[1Nal]HT[dF]-OH
modifications: disulfide 1-6 (inferred)
In the case of B12, the IC50 with IL23R_huFC [1] is over 1000 nM.

B13: Ac-CADWVC-NH2 (peptide)
peptide: Ac-CADWVC-NH2
modifications: disulfide 1-6 (inferred)
Molecule B13 yielded an IC50 with IL23R_huFC [1] of over 1000 nM.

B14: Ac-CADWVCY-[Aic]-HTFG-[AEA]-[(D)Lys]-NH2 (peptide)
peptide: Ac-CADWVCY[Aic′]HTFG[AEA][dK]-NH2
modifications: disulfide 1-6
With B14, the IC50 with IL23R_huFC [1] was over 1000 nM.

B15: Ac-CADWVCY-[1-Nal]-H-[Aib]-FG-NH2 (peptide)
peptide: Ac-CADWVCY[1Nal]H[Aib]FG-NH2
modifications: disulfide 1-6
SMILES: CC(=O)N[C@H]1CSSC[C@@H](C(=O)N[C@@H](Cc2ccc(O)cc2)C(=O)N[C@@H](Cc2cccc3ccccc23)C(=O)N[C@@H](Cc2c[nH]cn2)C(=O)NC(C)(C)C(=O)N[C@@H](Cc2ccccc2)C(=O)NCC(N)=O)NC(=O)[C@H](C(C)C)NC(=O)[C@H](Cc2c[nH]c3ccccc23)NC(=O)[C@H](CC(=O)O)NC(=O)[C@H](C)NC1=O
As for B15, in the assay with IL23R_huFC [1], the IC50 is over 1000 nM.

B16: Ac-CADWVCY-[Bip]-HTFG-[AEA]-[(D)Lys]-NH2 (peptide)
peptide: Ac-CADWVCY[Bip]HTFG[AEA][dK]-NH2
modifications: disulfide 1-6
SMILES: CC(=O)N[C@H]1CSSC[C@@H](C(=O)N[C@@H](Cc2ccc(O)cc2)C(=O)N[C@@H](Cc2ccc(-c3ccccc3)cc2)C(=O)N[C@@H](Cc2c[nH]cn2)C(=O)N[C@H](C(=O)N[C@@H](Cc2ccccc2)C(=O)NCC(=O)NCCOCC(=O)N[C@H](CCCCN)C(N)=O)[C@@H](C)O)NC(=O)[C@H](C(C)C)NC(=O)[C@H](Cc2c[nH]c3ccccc23)NC(=O)[C@H](CC(=O)O)NC(=O)[C@H](C)NC1=O
Molecule B16 came in with an IC50 with IL23R_huFC [1] of over 1000 nM.

B17: Hy-CADW-[Sarc]-CY-[1-Nal]-HTF-OH (peptide)
peptide: CADWXCYXHTF
modifications: [Sarc]; [1-Nal]; disulfide
As for B17, the concentration for half-maximal inhibition (IC50) with IL23R_huFC [1] is over 1000 nM.
